# Patent US20070009547A1 (INSTITUT PASTEUR, published 2007)
# T1: CFP-10 carrying an N-terminal HIS tag, produced by BCG::2F9-HIS-EsxB (Mycobacterium tuberculosis, UniProt P9WNK5 2-100)
# T1 sequence: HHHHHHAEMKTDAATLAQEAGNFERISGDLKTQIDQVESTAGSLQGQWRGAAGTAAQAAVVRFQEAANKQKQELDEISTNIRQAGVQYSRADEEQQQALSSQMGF
# Biological target: T1, CFP-10 carrying an N-terminal HIS tag, …
# Experiment: Ni-NTA co-purification, Coomassie gel and western blot
binder,measurement,value
"6 kDa early secreted antigenic target (ESAT-6), native, encoded by esxA (other) TEQQWNFAGIEAAASAIQGNVTSIHSLLDEGKQSLTKLAAAWGGSGSEAYQGVQQKWDATATELNNALQNLARTISEAGQAMASTEGNVTGMFA",binding result,binds
